Measured values from the supplement of paper PMC10126150.
± gives the standard deviation of the averaged measurements.

Tested on: ATP
Assay: switch fluorescence ratio, 500 uM ATP over buffer (Cy3 cluster intensity, sum of 5 cycles each) (fold (ratio)); higher = stronger signal-on switching upon ATP binding; sequences stand for … in TCGTCGGCAGCGTCAGATGTGTATAAGAGACAGTTTTTTTTTTTTTTTTTTTTTTTTT…TC
Settings: aptamer strand: ATP DNA aptamer (quencher-CACCTGGGGGAGTATTGCGGAGGAAGG + anchor), 100 nM annealed; ATP concentration: 500 uM
Method in brief: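 For every switch-domain sequence, the fluorescence ratio is the mean of per-cluster values, each being summed target-cycle Cy3 intensity over summed buffer-cycle Cy3 intensity. Clusters outside 100-1000 RFU were excluded. On a modified Illumina MiSeq flow-cell, the Cy3-labelled switching-strand clusters were annealed to 100 nM quencher-labelled ATP aptamer, imaged in selection buffer and then after 15 min with 500 uM ATP at 22 °C. Five such cycles were run, with NaOH stripping and re-annealing between them.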
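Further: ATP exposure 15 min at 22 °C before imaging.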

| Sequence | switch fluorescence ratio |
| --- | --- |
| ACTTCTCGGT | 0.992 ± 0.017 |
| ACTTCTGGAG | 2.15 ± 0.028 |
| ACTTGAAAAT | 1.002 ± 0.0095 |
| ACTTGATTTT | 1.02 ± 0.015 |
| ACTTGCACTC | 1.34 ± 0.057 |
| ACTTGCCTGT | 1.005 ± 0.01 |
| ACTTGGCAAA | 1.16 ± 0.02 |
| ACTTGGCATC | 1.13 ± 0.043 |
| ACTTGGGCGT | 1.03 ± 0.038 |
| ACTTGGTGTG | 1.01 ± 0.052 |
| ACTTGGTTGG | 0.9869 ± 0.00088 |
| ACTTGTAGCT | 1.02 ± 0.011 |
| ACTTGTCGCG | 1.02 ± 0.033 |
| ACTTGTGGGC | 0.973 ± 0.045 |
| ACTTTATCTT | 1.063 ± 0.01 |
| ACTTTATTTC | 1.011 ± 0.006 |
| ACTTTCGGGA | 0.995 ± 0.011 |
| ACTTTCTGGA | 1 ± 0.024 |
| ACTTTCTTAC | 1.12 ± 0.017 |
| ACTTTGAATG | 1.02 ± 0.027 |
| ACTTTGATGT | 1.01 ± 0.012 |
| ACTTTGGTTA | 1.04 ± 0.042 |
| ACTTTGTCTG | 0.991 ± 0.041 |
| ACTTTTAGTT | 1.05 ± 0.018 |
| ACTTTTGACT | 0.982 ± 0.022 |

| Sequence | switch fluorescence ratio |
| --- | --- |
| AGAAACAGGA | 1.04 ± 0.04 |
| AGAAAGGCGG | 0.9715 ± 0.0027 |
| AGAAAGGGGT | 1.01 ± 0.055 |
| AGAAAGTGGT | 0.992 ± 0.017 |
| AGAAATTCAT | 0.992 ± 0.029 |
| AGAAATTGGA | 1.02 ± 0.044 |
| AGAAATTTGG | 1.01 ± 0.02 |
| AGAACATAGA | 0.986 ± 0.0025 |
| AGAACCGTGT | 0.989 ± 0.041 |
| AGAACGTCTA | 1 ± 0.054 |
| AGAAGAGCTT | 1.011 ± 0.0024 |
| AGAAGAGTTT | 0.95 ± 0.018 |
| AGAAGATTGA | 0.999 ± 0.019 |
| AGAAGGGTAT | 0.976 ± 0.017 |
| AGAAGGTGGG | 1.01 ± 0.021 |
| AGAAGGTTTG | 0.963 ± 0.01 |
| AGAAGTACGT | 1.04 ± 0.013 |
| AGAAGTCGGA | 1 ± 0.011 |
| AGAAGTGGAG | 1.004 ± 0.01 |
| AGAAGTTGAG | 0.984 ± 0.01 |
| AGAAGTTTCG | 1.011 ± 0.0068 |
| AGAATATGGG | 0.994 ± 0.011 |
| AGAATATGTT | 0.983 ± 0.014 |
| AGAATCACTG | 1.08 ± 0.04 |
| AGAATGATCG | 0.994 ± 0.033 |

| Sequence | switch fluorescence ratio |
| --- | --- |
| AGAATGATTG | 0.988 ± 0.017 |
| AGAATGGGTT | 1.03 ± 0.029 |
| AGAATTCCGT | 0.992 ± 0.01 |
| AGAATTTCAT | 1.01 ± 0.0045 |
| AGAATTTGTT | 1 ± 0.024 |
| AGACAAAAAT | 1.026 ± 0.0065 |
| AGACACGTTA | 1.28 ± 0.017 |
| AGACAGGGGG | 1.11 ± 0.2 |
| AGACATTCCT | 1.3 ± 0.34 |
| AGACCTCTTT | 0.988 ± 0.02 |
| AGACGAGGCT | 1.01 ± 0.021 |
| AGACGGGGGC | 0.978 ± 0.12 |
| AGACTAAAAG | 0.986 ± 0.015 |
| AGACTGAATT | 1.03 ± 0.02 |
| AGACTGATAC | 1.08 ± 0.025 |
| AGACTGGGCT | 1.01 ± 0.011 |
| AGACTGGGTT | 0.971 ± 0.012 |
| AGACTGTTAG | 0.976 ± 0.029 |
| AGACTTGTTA | 0.971 ± 0.021 |
| AGACTTTTGG | 0.987 ± 0.011 |
| AGAGAAAGGC | 1.08 ± 0.051 |
| AGAGAACGCT | 0.967 ± 0.035 |
| AGAGACTGAG | 1.045 ± 0.0026 |
| AGAGAGCGAA | 1.01 ± 0.022 |
| AGAGAGGACG | 1.02 ± 0.033 |

| Sequence | switch fluorescence ratio |
| --- | --- |
| AGAGAGTGAC | 0.981 ± 0.01 |
| AGAGAGTTAT | 1.02 ± 0.011 |
| AGAGAGTTTG | 1.01 ± 0.02 |
| AGAGATGTGG | 0.958 ± 0.036 |
| AGAGCATTTG | 1.01 ± 0.058 |
| AGAGCCACTG | 1.01 ± 0.024 |
| AGAGCCGGGA | 0.988 ± 0.043 |
| AGAGCGGA | 0.981 ± 0.011 |
| AGAGCGGCAA | 2.81 ± 2.4 |
| AGAGGAAAGG | 1.022 ± 0.0041 |
| AGAGGAGGGA | 0.9737 ± 0.0047 |
| AGAGGAGGGG | 1.01 ± 0.042 |
| AGAGGATGAT | 0.962 ± 0.013 |
| AGAGGATTTT | 1 ± 0.015 |
| AGAGGCAAGA | 1.16 ± 0.028 |
| AGAGGCAAGG | 1.0062 ± 0.0002 |
| AGAGGCCGAT | 1.022 ± 0.0012 |
| AGAGGCGTTA | 1.01 ± 0.025 |
| AGAGGGAATG | 0.975 ± 0.03 |
| AGAGGGACAT | 1.09 ± 0.1 |
| AGAGGGCATT | 0.967 ± 0.045 |
| AGAGGGGGGG | 0.999 ± 0.038 |
| AGAGGGGGTG | 0.96 ± 0.013 |
| AGAGGGGTTG | 0.972 ± 0.016 |
| AGAGGGTACG | 1.06 ± 0.017 |

| Sequence | switch fluorescence ratio |
| --- | --- |
| AGAGGGTCTC | 0.973 ± 0.058 |
| AGAGGGTTAC | 0.999 ± 0.036 |
| AGAGGGTTTT | 0.988 ± 0.031 |
| AGAGGTAAGG | 0.983 ± 0.019 |
| AGAGGTAGGG | 0.984 ± 0.035 |
| AGAGGTGTGC | 1.049 ± 0.01 |
| AGAGGTGTGG | 0.991 ± 0.05 |
| AGAGGTTAAG | 1.03 ± 0.08 |
| AGAGGTTATT | 0.9994 ± 0.0069 |
| AGAGTAAGTG | 0.962 ± 0.025 |
| AGAGTAGTGT | 0.99 ± 0.032 |
| AGAGTAGTTG | 0.9708 ± 0.0076 |
| AGAGTATGAA | 1 ± 0.032 |
| AGAGTATGGG | 1.01 ± 0.038 |
| AGAGTGCGGT | 1.011 ± 0.006 |
| AGAGTGGGGT | 0.962 ± 0.033 |
| AGAGTGGGTG | 0.978 ± 0.013 |
| AGAGTGGTGG | 0.9769 ± 0.0097 |
| AGAGTGTTTC | 0.943 ± 0.038 |
| AGAGTTATGC | 1.022 ± 0.01 |
| AGAGTTGAGA | 1.0102 ± 0.001 |
| AGAGTTGTTA | 0.996 ± 0.013 |
| AGAGTTTGAA | 1.02 ± 0.024 |
| AGAGTTTTCT | 0.9916 ± 0.0094 |
| AGATACGAGG | 1.03 ± 0.011 |

| Sequence | switch fluorescence ratio |
| --- | --- |
| AGATACTGCA | 1.05 ± 0.0087 |
| AGATAGAGTA | 1.006 ± 0.0033 |
| AGATAGATTG | 1 ± 0.04 |
| AGATAGGG | 0.96188 ± 0.00038 |
| AGATAGGGAT | 1.04 ± 0.053 |
| AGATATAATA | 1.02 ± 0.035 |
| AGATATAGCG | 1.029 ± 0.0076 |
| AGATATCATG | 0.973 ± 0.037 |
| AGATATGGTG | 1.01 ± 0.089 |
| AGATATGTGT | 0.998 ± 0.013 |
| AGATATTAGA | 1.017 ± 0.0048 |
| AGATATTGGG | 0.992 ± 0.068 |
| AGATCGCTTG | 0.975 ± 0.0019 |
| AGATCGTGGG | 1.04 ± 0.015 |
| AGATCTTGTG | 1 ± 0.022 |
| AGATGAATGC | 0.989 ± 0.011 |
| AGATGACGTT | 1.01 ± 0.046 |
| AGATGACTTT | 0.98 ± 0.034 |
| AGATGAGGGC | 1.04 ± 0.022 |
| AGATGAGTGT | 1 ± 0.02 |
| AGATGATCAG | 0.982 ± 0.02 |
| AGATGCATGG | 1.02 ± 0.025 |
| AGATGCCATG | 1.032 ± 0.0075 |
| AGATGCCGAC | 1.02 ± 0.054 |
| AGATGCGGTA | 1.01 ± 0.029 |

| Sequence | switch fluorescence ratio |
| --- | --- |
| AGATGCTGGT | 0.994 ± 0.015 |
| AGATGGGGGG | 1.02 ± 0.033 |
| AGATGGGGGT | 1.016 ± 0.0053 |
| AGATGGTAGG | 0.986 ± 0.023 |
| AGATGTAGTG | 0.9948 ± 0.0036 |
| AGATGTCTAC | 0.989 ± 0.018 |
| AGATTAGCGC | 0.9812 ± 0.0063 |
| AGATTATGGG | 0.974 ± 0.033 |
| AGATTGTTGG | 0.989 ± 0.019 |
| AGATTGTTTA | 0.981 ± 0.019 |
| AGATTTAGAG | 1.011 ± 0.0032 |
| AGATTTCGGC | 1.039 ± 0.0015 |
| AGATTTTCTG | 1.01 ± 0.025 |
| AGCAAAATGG | 1.0258 ± 0.00022 |
| AGCAAACTTG | 1.04 ± 0.049 |
| AGCAAAGAGC | 0.99 ± 0.037 |
| AGCAAATTCT | 1.16 ± 0.072 |
| AGCAACCTTT | 1.16 ± 0.039 |
| AGCACGCACA | 1.77 ± 0.06 |
| AGCACGTTTT | 1.01 ± 0.025 |
| AGCAGAGGAC | 0.971 ± 0.058 |
| AGCAGCGCGG | 1.04 ± 0.042 |
| AGCAGTGGAC | 1.23 ± 0.016 |
| AGCAGTTTTT | 0.996 ± 0.028 |
| AGCATGATGG | 1.04 ± 0.021 |

| Sequence | switch fluorescence ratio |
| --- | --- |
| AGCATGGCTG | 1.01 ± 0.001 |
| AGCATGGGAG | 0.991 ± 0.034 |
| AGCATGTCTG | 0.986 ± 0.01 |
| AGCATTTTCA | 1.24 ± 0.32 |
| AGCCAGAAGT | 0.991 ± 0.022 |
| AGCCAGGTGG | 1.27 ± 0.14 |
| AGCCATATTT | 1.04 ± 0.028 |
| AGCCATGGCT | 0.9927 ± 0.0099 |
| AGCCATGTGA | 1.01 ± 0.011 |
| AGCCATTTGT | 1.015 ± 0.0063 |
| AGCCCCTTAG | 1.002 ± 0.0065 |
| AGCCCTAAGG | 0.979 ± 0.045 |
| AGCCCTGGGG | 1.02 ± 0.011 |
| AGCCGGCTGC | 1.03 ± 0.024 |
| AGCCGGGTAT | 1.01 ± 0.016 |
| AGCCGGTTCC | 1.014 ± 0.0092 |
| AGCCTCTATA | 1.012 ± 0.0066 |
| AGCCTGCCCT | 1.067 ± 0.0053 |
| AGCCTGGGGA | 1.001 ± 0.0018 |
| AGCCTGGTGG | 1.05 ± 0.013 |
| AGCCTGTTTT | 0.9861 ± 0.0011 |
| AGCCTTGGGA | 1 ± 0.024 |
| AGCGAAAGGA | 1.01 ± 0.023 |
| AGCGAAATTT | 1.04 ± 0.023 |
| AGCGACGGAG | 0.966 ± 0.024 |
